Source: patent US20240116985A1 (published 2024)
Starred links: 1 amine or outer side, 2 acyl side, 3 side chain; linkers in the order of their positions; H or OH if unused. Positions of bridges follow the written chain, without caps; N, C: chain ends. Non-standard residues stand in square brackets, D forms with d. Primed or numbered codes have the meaning given here. No end group written: not given here. *: point of attachment. PyrS2″ = (S)-3-amino-1-((pent-4-en-1-yloxy)carbonyl)pyrrolidine-3-carboxylic acid (stapling residue), C=CCCCOC(=O)N1CC[C@@](N[*:1])(C(=O)[*:2])C1; B5(4) = 2,2-bis(4-pentenyl)glycine = 2-amino-2-(pent-4-en-1-yl)hept-6-enoic acid (stitching residue), C=CCCCC(CCCC=C)(N[*:1])C(=O)[*:2]; B5(5) = 2,2-bis(4-pentenyl)glycine, 2-amino-2-(pent-4-en-1-yl)hept-6-enoic acid (stitching residue), C=CCCCC(CCCC=C)(N[*:1])C(=O)[*:2]; TfeGA = (S)-2-amino-3-((carboxymethyl)(2,2,2-trifluoroethyl)amino)propanoic acid, O=C([C@H](CN(CC(=O)[*:3])CC(F)(F)F)N[*:1])[*:2]; PyrS2 = (S)-3-amino-1-((pent-4-en-1-yloxy)carbonyl)pyrrolidine-3-carboxylic acid, C=CCCCOC(=O)N1CC[C@@](N[*:1])(C(=O)[*:2])C1; (Morph)GlnR = (S)-2-amino-5-morpholino-5-oxopentanoic acid, O=C(CC[C@H](N[*:1])C(=O)[*:2])N1CCOCC1; B5(3) = 2,2-bis(4-pentenyl)glycine (stitching residue), C=CCCCC(CCCC=C)(N[*:1])C(=O)[*:2]; Phe(3-COOH) = N[C@@H](Cc1cccc(C(=O)O)c1)C(=O)O; 2F3MeF = Cc1cccc(C[C@H](N[*:1])C(=O)[*:2])c1F; Phe(2-CF3) = N[C@@H](Cc1ccccc1C(F)(F)F)C(=O)O; Phe(2-Cl) = N[C@@H](Cc1ccccc1Cl)C(=O)O; Bta = N[C@@H](Cc1csc2ccccc12)C(=O)O; αAllylPro = C=CC[C@@]1(C(=O)O)CCCN1; tBuAla = CC(C)(C)C[C@H](N)C(=O)O; 3Thi = N[C@@H](Cc1ccsc1)C(=O)O; S8 = C=CCCCCCC[C@](C)(N)C(=O)O; hSer = N[C@@H](CCO)C(=O)O; NH(CH2)6NH2 = NCCCCCCN*

Key:
Assay in all cases: cell-based or functional assay
Bcat-Halo = biological target: T1, Bcat-Halo (UniProt P35222 1-781)
T1 sequence (looked up): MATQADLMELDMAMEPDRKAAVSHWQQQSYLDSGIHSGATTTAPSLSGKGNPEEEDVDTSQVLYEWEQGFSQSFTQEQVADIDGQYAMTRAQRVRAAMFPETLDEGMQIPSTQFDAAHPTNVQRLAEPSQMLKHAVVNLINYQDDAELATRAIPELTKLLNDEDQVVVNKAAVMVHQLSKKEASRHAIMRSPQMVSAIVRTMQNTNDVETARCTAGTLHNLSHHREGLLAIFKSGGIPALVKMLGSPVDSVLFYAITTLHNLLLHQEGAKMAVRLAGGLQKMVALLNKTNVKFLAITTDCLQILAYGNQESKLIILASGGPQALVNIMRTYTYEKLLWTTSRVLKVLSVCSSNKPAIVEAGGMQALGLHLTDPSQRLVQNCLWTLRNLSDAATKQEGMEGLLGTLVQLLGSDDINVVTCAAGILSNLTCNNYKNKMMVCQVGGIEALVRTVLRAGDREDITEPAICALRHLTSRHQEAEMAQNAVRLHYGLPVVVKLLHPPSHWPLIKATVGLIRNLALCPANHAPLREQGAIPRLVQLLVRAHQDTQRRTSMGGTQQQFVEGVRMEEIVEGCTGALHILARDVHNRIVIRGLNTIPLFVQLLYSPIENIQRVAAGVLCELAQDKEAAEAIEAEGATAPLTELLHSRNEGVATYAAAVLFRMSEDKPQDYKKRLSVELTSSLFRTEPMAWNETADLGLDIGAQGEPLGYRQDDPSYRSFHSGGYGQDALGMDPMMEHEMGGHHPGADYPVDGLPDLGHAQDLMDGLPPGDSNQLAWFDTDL

[1] = biological target: T2, beta-catenin in DLD1 TCF/LEF luciferase reporter cells (UniProt P35222 2-781)
T2 sequence (looked up): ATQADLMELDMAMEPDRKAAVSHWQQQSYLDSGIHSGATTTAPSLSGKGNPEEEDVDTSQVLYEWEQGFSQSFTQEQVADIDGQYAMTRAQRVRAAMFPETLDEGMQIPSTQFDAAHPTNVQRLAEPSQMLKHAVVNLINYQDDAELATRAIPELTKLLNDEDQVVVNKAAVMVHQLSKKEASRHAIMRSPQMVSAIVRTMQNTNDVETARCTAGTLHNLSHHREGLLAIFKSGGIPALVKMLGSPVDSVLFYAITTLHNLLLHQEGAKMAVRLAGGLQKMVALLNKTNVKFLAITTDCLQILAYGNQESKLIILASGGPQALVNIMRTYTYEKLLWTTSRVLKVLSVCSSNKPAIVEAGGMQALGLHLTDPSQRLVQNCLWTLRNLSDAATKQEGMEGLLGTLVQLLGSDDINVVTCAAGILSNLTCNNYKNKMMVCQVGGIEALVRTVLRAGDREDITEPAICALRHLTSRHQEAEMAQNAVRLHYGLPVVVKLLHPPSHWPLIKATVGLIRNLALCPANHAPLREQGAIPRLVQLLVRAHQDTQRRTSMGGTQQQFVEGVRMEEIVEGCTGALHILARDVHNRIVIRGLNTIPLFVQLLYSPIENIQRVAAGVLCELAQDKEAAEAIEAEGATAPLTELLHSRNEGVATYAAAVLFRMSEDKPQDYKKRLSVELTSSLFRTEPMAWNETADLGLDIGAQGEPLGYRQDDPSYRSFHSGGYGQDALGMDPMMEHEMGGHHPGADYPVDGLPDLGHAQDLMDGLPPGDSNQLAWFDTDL

[2] = biological target: T3, B-cat-Halo (beta-catenin HaloTag construct expressed in HEK293 cells) (UniProt P35222 1-781)
T3 sequence (looked up): T1 sequence (looked up)

[3] = biological target: T4, beta-catenin in DLD1 TCF/LEF luciferase reporter cells (UniProt P35222 1-781)
T4 sequence (looked up): T1 sequence (looked up)

[4] = biological target: T5, B-cat-Halo (Nano-BRET construct expressed in HEK293 cells) (UniProt P35222 1-781)
T5 sequence (looked up): T1 sequence (looked up)

B-cat-Halo [5] = biological target: T6, B-cat-Halo (UniProt P35222 1-781)
T6 sequence (looked up): T1 sequence (looked up)

[6] = biological target: T7, beta-catenin in DLD1 TCF/LEF luciferase reporter cells (UniProt P35222 1-781); remark: listed apart in the source
T7 sequence (looked up): T1 sequence (looked up)

B-cat-Halo [7] = biological target: T8, B-cat-Halo (UniProt P35222 1-781); remark: listed apart in the source
T8 sequence (looked up): T1 sequence (looked up)

Binder: Ac-[αAllylPro]D[tBuAla][B5(4)]D[Phe(3-COOH)][(Morph)GlnR]AFL[PyrS2″][2F3MeF][Bta]A-NH2 (staple 1-4, 4-11) [I-2315]
- NanoBRET Abs IC50 (Bcat-Halo): 1.2 µM
- DLD1 4% Abs IC50 [1]: 1.5 µM

Binder: Ac-[αAllylPro]D[tBuAla][B5(4)]D[Phe(3-COOH)][(AcPpz)GlnR]AFL[PyrS2″][2F3MeF][Bta]A-NH2 (staple 1-4, 4-11) [I-2319]
- NanoBRET Abs IC50 (Bcat-Halo): 1 µM
- DLD1 4% Abs IC50 [1]: 1.7 µM

B1: I-2520 (peptide)
peptide: Ac-[αAllylPro]D[tBuAla][B5(4)]DXQAFL[PyrS2][Phe(2-CF3)][Bta]A-NH2
modifications: staple 1-4, 4-11; not fully specified (residue 6); printed as Ac-PL3-Asp-Npg-B5-Asp-[CH2CChCO2H]TriAzDap-Gln-Ala-Phe-Leu-PyrS2-2F3MeF-BztA-Ala-NH2
- NanoBRET Abs IC50 (uM); Bcat-Halo / TCF4-Luc in HEK293 cells [2]: 5.9 µM
- DLD1 4% Abs IC50 (uM); TCF/LEF luciferase reporter assay [3]: 5.7 µM

B2: I-2521 (peptide)
peptide: Ac-[αAllylPro]D[tBuAla][B5(4)]DXAAFL[PyrS2][Phe(2-CF3)][Bta]S-NH2
modifications: staple 1-4, 4-11; not fully specified (residue 6); printed as Ac-PL3-Asp-Npg-B5-Asp-[CH2CChCO2H]TriAzDap-Ala-Ala-Phe-Leu-PyrS2-2F3MeF-BztA-Ser-NH2
- NanoBRET Abs IC50 (uM); Bcat-Halo / TCF4-Luc in HEK293 cells [2]: 5.6 µM
- DLD1 4% Abs IC50 (uM); TCF/LEF luciferase reporter assay [3]: 3 µM

B3: I-873 (peptide)
peptide: Ac-[αAllylPro]D[tBuAla][B5(3)]DDAAFN[PyrS2″][3Thi][Bta]QAA
modifications: staple 1-4, 4-11; not fully specified; printed as Ac-PL3-Asp-Npg-B5-Asp-Asp-Ala-Ala-Phe-Asn-PyrS2-3Thi-BztA-Gln-Ala-Ala
- NanoBRET IC50 [4]: 8.9 µM

B4: I-882 (peptide)
peptide: Ac-[αAllylPro]D[tBuAla][B5(3)]DDAAFN[PyrS2″][3Thi][Bta]Q-{NH(CH2)6NH2}
modifications: staple 1-4, 4-11; not fully specified; printed as Ac-PL3-Asp-Npg-B5-Asp-Asp-Ala-Ala-Phe-Asn-PyrS2-3Thi-BztA-Gln-6AmHex
- NanoBRET IC50 [4]: 22.5 µM

Binder: Ac-[αAllylPro]D[tBuAla][B5(3)]D[TfeGA]AAF[hSer][PyrS2″][Phe(2-Cl)][Bta][hSer]-NH2 (staple 1-4, 4-11) [I-993]
- NanoBRET Abs IC50 (B-cat-Halo [5]): 4.9 µM
- DLD1 4% Abs IC50 [6]: 1.8 µM

Binder: Ac-[αAllylPro]D[tBuAla][B5(3)]D[TfeGA]AAF[hSer][S8][Phe(2-Cl)][Bta]Q-NH2 (staple 1-4, 4-11) [I-996]
- NanoBRET Abs IC50 (B-cat-Halo [5]): 11.3 µM
- DLD1 4% Abs IC50 [6]: 3.6 µM

Binder: Ac-[αAllylPro]D[tBuAla][B5(5)]DDAAFN[PyrS2″][3Thi][Bta]Q-NH2 (staple 1-4, 4-11) [I-686]
- NanoBRET IC50 (B-cat-Halo [7]): 7.5 µM
